Assay results: publication PMC6787036

Target: human alpha-thrombin (Homo sapiens, UniProt P00734;P00734 328-363;364-622)
Experiment: affinity chromatography (HPLC, aptamer monolith); 5 mM Mg2+, pH 8.0; eluted with 2 M NaClO4; 10 mM Tris HCl, 5 mM MgCl2 (varied 0-20 mM), pH 8.0 (varied 4-10), 0.3 mL/min, elution with 2 M NaClO4; temperature not stated

B1: TBA (15-mer thrombin binding aptamer) (structured_DNA)
DNA: GGTTGGTGTGGTTGG
modifications: 5' amino-C6 (5AmMC6), covalently immobilised on poly(EDMA-co-GMA) monolith by Schiff-base (EDA/glutaraldehyde)
  binding result: binds
